Experimental data taken from article PMC11793764, “A universal method for the purification of C2H2 zinc finger arrays”.

Target: CCR5L (designed (synthetic))
Experiment: MST; 100 uM ZnCl2; MST: 20 mM Tris-HCl pH 7.5, 200 mM NaCl, 0.01% Tween-20, 100 uM ZnCl2, 0.1 mM TCEP; TZAP arrays: 20 mM Tris-HCl pH 7.0, 50 mM NaCl, 0.1% Tween-20, 100 uM ZnCl2, 0.1 mM TCEP; temperature not stated
Conditions: protein: recombinant; tags: His-SUMO cleaved by Ulp1; Cy5-maleimide on terminal Cys; hairpin

Sequence of CCR5L (designed (synthetic)) (chain, as listed by the source): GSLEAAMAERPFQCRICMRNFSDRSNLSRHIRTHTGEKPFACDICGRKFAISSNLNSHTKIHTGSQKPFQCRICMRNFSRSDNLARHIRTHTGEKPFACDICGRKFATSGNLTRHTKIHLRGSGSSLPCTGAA

B1: ccr5l-wt (structured_DNA)
DNA: GGCTTCCGCTGTCATCCTCATCAGGTTTTCCTGATGAGGATGACAGCGGAAGCC
- Kd: 5.7 nM
